{"source": "patent US20110280809", "proteins": {"B1": {"name": "GST-Pdia4 (protein)", "chain": "VAGAEGPDEDSSNRENAIEDEEEEEEEDDDEEEDDLEVKEENGVLVLNDANFDNFVADKDTVLLEFYAPWCGHCKQFAPEYEKIANILKDKDPPIPVAKIDATSASVLASRFDVSGYPTIKILKKGQAVDYEGSRTQEEIVAKVREVSQPDWTPPPEVTLVLTKENFDEVVNDADIILVEFYAPWCGHCKKLAPEYEKAAKELSKRSPPIPLAKVDATAETDLAKRFDVSGYPTLKIFRKGRPYDYNGPREKYGIVDYMIEQSGPPSKEILTLKQVQEFLKDGDDVIIIGVFKGESDPAYQQYQDAANNLREDYKFHHTFSTEIAKFLKVSQGQLVVMQPEKFQSKYEPRSHMMDVQGSTQDSAIKDFVLKYALPLVGHRKVSNDAKRYTRRPLVVVYYSVDFSFDYRAATQFWRSKVLEVAKDFPEYTFAIADEEDYAGEVKDLGLSESGEDVNAAILDESGKKFAMEPEEFDSDTLREFVTAFKKGKLKPVIKSQPVPKNNKGPVKVVVGKTFDSIVMDPKKDVLIEFYAPWCGHCKQLEPVYNSLAKKYKGQKGLVIAKMDATANDVPSDRYKVEGFPTIYFAPSGDKKNPVKFEGGDRDLEHLSKFIEEHATKLSRTKEEL"}}, "molecular_target": "Bovine pancreatic trypsin inhibitor, reduced form, P00974", "data": [{"protein": "B1", "values": [{"measurement": "disulfide isomerase activity, fraction remaining (%) of the reduced BPTI", "result": "GST-Pdia4 showed disulfide isomerase activity as compared to GST protein in redox buffer as evidenced by a decrease in disulfide formation of bovine pancreatic trypsin inhibitor"}]}]}
